Laboratory results published in paper PMC7785527, “Human Short Peptidoglycan Recognition Protein PGLYRP1/Tag-7/PGRP-S Inhibits Listeria monocytogenes Intracellular Survival in Macrophages” (Frontiers in Cellular and Infection Microbiology, 2020).

Biological target: the molecule itself
Assay: SDS-PAGE without reducing agent (bands identified by MALDI-MS); 3 ug purified PGLYRP1; Laemmli loading buffer without beta-mercaptoethanol (compared with 5 mM beta-mercaptoethanol); Coomassie stained gel

B1: human recombinant PGLYRP1/Tag-7/PGRP-S with a C-terminal triple DED epitope (natural protein, UniProt O75594 22-196, looked up)
chain: QETEDPACCSPIVPRNEWKALASECAQHLSLPLRYVVVSHTAGSSCNTPASCQQQARNVQHYHMKTLGWCDVGYNFLIGEDGLVYEGRGWNFTGAHSGHLWNPMSIGISFMGNYMDRVPTPQAIRAAQGLLACGVAQGALRSNYVLKGHRDVQRTLSPGNQLYHLIQNWPHYRSP
notes: called full-sized / full-size; On non-reducing SDS-PAGE the preparation is a mix of monomer (~25 kDa) and disulfide-linked homodimer (~60 kDa) of similar intensity; also called recombinant tagged PGLYRP1
stoichiometry N: 2
